The values that follow come from US20120178139A1 (published 2012).

The term Kd denotes a measure of binding affinity in units of concentration.

In test [1] the target is T1, mouse glycophorin-A on mouse erythrocytes (mouse, UniProt P14220 1-168). Nature of the test: photo-crosslinking of biotinylated peptide to whole mouse erythrocytes, streptavidin pull-down and streptavidin Western blot. The procedure: When whole erythrocytes were incubated with ERY1 peptide functionalized with biotin and a photoactivatable crosslinker, a single 28 kDa protein was conjugated with the peptide-biotin complex, as detected by a streptavidin Western blot (FIG. 2A). The reaction lysate was extensively washed and purified using streptavidin magnetic beads to ensure no unlabeled proteins from the erythrocyte lysate remained. […] The mismatch peptide, […] (SEQ ID NO:2), was designed to contain the same amino acid residues as ERY1, and to match its hydrophobicity topography. […] Anti-GYPA Western blotting of the same purified samples from the crosslinking reaction confirmed that the candidate biotinylated protein was indeed GYPA (FIG. 2B).
In brief, peptides were solubilized in PBS/DMF and reacted with 1.05 equivalents of Mts-atf-biotin overnight at 4° C. Following clarification of the reaction by centrifugation, biotinylated peptide was incubated with erythrocytes at in PBSA-50 for 1 h at 37° C., cells were washed twice in fresh PBS, and were UV irradiated at 365 nm for 8 min at room temperature. Cells were lysed by sonication and the lysate was purified using streptavidin-coated magnetic beads (Invitrogen). The eluate was run on an SDS-PAGE and transferred to a PVDF membrane, and immunoblotted with streptavidin-HRP(R&D Systems) or anti-mouse GYPA.
(In western blotting, separated proteins are transferred to a membrane and probed.)

The target in test [2] is T1, mouse glycophorin-A on mouse …. Description: in vivo, geometric mean fluorescence of circulating erythrocytes by flow cytometry, one-phase exponential decay. As for the experimental part: Consistent with glycophorin-A association, ERY1-OVA bound to erythrocytes (CD45⁻) but not to leukocytes (CD45⁺). ERY1-OVA binding was unbiased as to the apoptotic state of the erythrocytes, binding strongly to both annexin-V⁺ and annexin-V⁻ CD45⁻ populations (FIG. 9b).
150 μg of ERY1-OVA or OVA in 0.9% saline (B. Braun) in a volume of 100 μL was injected intravenously into the tail of 8-12 week old female C57BL/6 mice while under anesthesia with isoflurane. Care was taken to ensure mice were kept at 37 C with a heating pad during experimentation. At predetermined time points, 5 μL of blood was taken from a small incision on the tail, diluted 100-fold into 10 mM EDTA in PBS, washed three times with PBS with 10 mg/mL BSA, and analyzed for OVA content by flow cytometry and ELISA. OVA was quantified by sandwich ELISA, using a mouse monoclonal anti-OVA antibody (Sigma) for capture, a polyclonal rabbit anti-OVA antibody (AbD SEROTEC) for detection, a goat anti-rabbit-IgG-HRP antibody (BioRad) for final detection, followed by TMB substrate (GE Life Sciences). Hematological characterization was performed on an ADVIVA 2120 Hematology System (Siemens). Erythrocyte-bound ERY1-GST was detected by incubating labeled cells with goat anti-GST (GE Healthcare Life Sciences), followed by incubation with AlexaFluor488 donkey anti-goat (Invitrogen), and analyzed by flow cytometry. […]
For orientation: In flow cytometry, cells or beads pass a laser one at a time.

The target is the same in test [3]. Description: equilibrium binding to mouse erythrocytes, flow cytometry, one-site binding fit.

On to H-PLLTVGMDLWPWGGSGCRG-NH2 (not fully specified (residue 17); also: conjugated to Mts-Atf-biotin, Same amino acids as ERY1, scrambled) [mismatch peptide, soluble, biotinylated (H2N-PLLTVGMDLWPWGGSGCRG-CONH2 conjugated to Mts-Atf-biotin)], for which, in test [1], the binding result is listed as “no binding”.

B1: ERY1-OVA (ovalbumin chemically conjugated with ERY1 peptide through SMCC) (other)
chain: GSIGAASMEFCFDVFKELKVHHANENIFYCPIAIMSALAMVYLGAKDSTRTQINKVVRFDKLPGFGDSIEAQCGTSVNVHSSLRDILNQITKPNDVYSFSLASRLYAEERYPILPEYLQCVKELYRGGLEPINFQTAADQARELINSWVESQTNGIIRNVLQPSSVDSQTAMVLVNAIVFKGLWEKAFKDEDTQAMPFRVTEQESKPVQMMYQIGLFRVASMASEKMKILELPFASGTMSMLVLLPDEVSGLEQLESIINFEKLTEWTSSNVMEERKIKVYLPRMKMEEKYNLTSVLMAMGITDVFSSSANLSGISSAESLKISQAVHAAHAEINEAGREVVGSAEAGVDAASVSEEFRADHPFLFCIKHIATNAVLFFGRCVSP
peptide: WMVLPWLPGTLDGGSGCRG
modifications: C-terminal amide; cysteine side chain conjugated via SMCC to lysines of OVA; lysine side chains carry SMCC linked to the cysteine of the ERY1 peptide
notes: also called ERY1-conjugated antigen
As to B1, the cell-surface half-life in test [2] was 17.2 h. In addition, binding in test [3] was put at a Kd of 6.2 nM.
